Here are results for two molecules from US20200332017A1 (SALUBRIS CHENGDU BIOTECH, published 2020).

Read-outs that look alike come from different tables or passages of the source.

Experiment [1] addresses T1, human CD40-Fc protein (amino acid residue 21-193 of SEQ ID NO: 67 linked to N-terminus of amino acid residue … (human, biotin-labeled in the capture ELISA and in the benchmark blocking ELISA; unlabeled when coated in the ligand blocking ELISA).
T1 construct: also called biotin-labeled human CD40-Fc; human CD40-Fc-biotin
Briefly: ligand blocking ELISA: human CD40-Fc coated, antibody titrated, then biotin-labeled human CD40L-his (blocked ligand), streptavidin-HRP, OD(450-630). How it is done: (§1) Briefly, human CD40-Fc proteins (amino acid residue 21-193 of SEQ ID NO: 67 linked to N-terminus of amino acid residue 99-330 of SEQ ID NO.: 24) were coated on 96-well micro plates at 2 μg/mL in coating buffer (PBS) and incubated overnight at 4° C. The next day, plates were washed with wash buffer (PBS+0.05% Tween-20, PBST), and blocked with 5% w/v non-fatty milk in PBST for 2 hours at 37° C. Plates were then washed again using wash buffer.
(§2) Serially diluted the mouse anti-CD40 antibodies of the present invention or the controls (starting at 200 nM with a four-fold serial dilution) in 2.5% w/v non-fatty milk in PBST were prepared to the plates and incubated with the human CD40-Fc proteins at room temperature for 40 minutes. […] Plates were washed again. 100 μl/well of streptavidin conjugated HRP was added and incubated for 40 minutes at 37° C. Plates were washed again using wash buffer. Finally, TMB was added and the reaction was stopped using 1M H₂SO₄, and the absorbance was read at 450 nm. Data were analyzed using Graphpad Prism software and IC₅₀ values were reported.
Background: ELISA stands for enzyme-linked immunosorbent assay.

The target of experiment [2] is T1, human CD40-Fc protein (amino acid …). Briefly: capture ELISA (antibody captured on coated anti-IgG F(ab')2, biotin-labeled human CD40-Fc in solution, streptavidin-HRP, OD(450-630)). How it is done:
(§3) Plates were washed 4 times with wash buffer (PBS+0.05% Tween-20, PBST) and then blocked with 200 μl/well blocking buffer (5% w/v non-fatty milk in PBST) for 2 hours at 37° C. […] After a final wash, plates were incubated with 100 μl/well ELISA substrate TMB (Innoreagents, Cat # TMB-S-002). The reaction was stopped in 15 minutes at 25° C. with 50 μl/well 1M H₂SO₄, and the absorbance was read at 450 nm and plotted against antibody concentration. Data were analyzed using Graphpad Prism software and EC₅₀ values were reported.

Experiment [3] shares this target. The experiment is described as above. How it is done:
as §3
The source holds these as a separate data set.

Experiment [4] has as its target T2, full length human CD40 (uniprot # P25942-1) on the membrane of 293T-CD40 cells (human, UniProt P25942 21-277). In words: cell-based or functional assay.
Experiment [5] addresses T2, full length human CD40 (uniprot # …). In words: flow cytometry on 293T-CD40 cells. How it is done:
(§4) 2×10⁵ cells per well in 96 well-plates were incubated with the mouse anti-CD40 antibodies or the controls of various concentrations in FACS buffer for 40 minutes on ice. […] Following an incubation of 40 minutes at 4° C. in dark, cells were washed three times and resuspended in FACS buffer. Fluorescence was measured using a Becton Dickinson FACS Canto II-HTS equipment and plotted against antibody concentration.
For orientation: In flow cytometry, cells or beads pass a laser one at a time.

For experiment [6] the target is unchanged. In words: flow cytometry on 293T-CD40 cells, PE-labeled secondary antibody, MFI. How it is done:
as §4

Experiment [7] has as its target T1, human CD40-Fc protein (amino acid …). Briefly: competitive ELISA; coated human CD40-Fc, competitor biotin human CD40L-his. How it is done:
as §1, §2

Experiment [8] shares this target. Briefly: capture ELISA; antibody captured, biotin-labeled human CD40-Fc in solution. How it is done:
as §3

Experiment [9] addresses T3, Human CD40-his protein (Acro biosystems, Cat # CD0-H5228) (human, UniProt P25942 21-193).
T3 construct: Bought reagent; not shown: his tag
Briefly: SPR, Biacore; antibody captured, human CD40-his flowed. An excerpt: Briefly, goat anti-mouse IgG (GE healthcare, Cat # BR100838, Mouse Antibody Capture Kit) was covalently linked to a CM5 or a Protein G chip (carboxy methyl dextran coated chip) via primary amines, using a standard amine coupling kit provided by Biacore (GE healthcare, Pittsburgh, Pa., USA). Un-reacted moieties on the biosensor surface were blocked with ethanolamine. […] Then, human CD40-his (Acro biosystems, Cat # CD0-H5228) or cynomolgus monkey CD40-his protein (Acro biosystems, Cat # CD0-052H6) in HBS EP buffer (provided by Biacore) was flowed onto the chip at a flow rate of 30 μL/min. The antigen-antibody association kinetics was followed for 2 minutes and the dissociation kinetics was followed for 10 minutes. The association and dissociation curves were fit to a 1:1 Langmuir binding model using BIA evaluation software.
For orientation: In SPR one partner is held on a chip, and binding of the other changes the refractive index at the surface.

Experiment [10] concerns the target T1, human CD40-Fc protein (amino acid …). Briefly: capture ELISA (antibody captured on coated goat anti-human IgG F(ab')2, biotin-labeled human CD40-Fc in solution, streptavidin-HRP, OD(450-630)).
For experiment [11] the target is unchanged. In words: capture ELISA; antibody captured, biotin-labeled human CD40-Fc in solution. How it is done: as §3
The source holds these as a separate data set.

B1: mouse anti-CD40 monoclonal antibody C1C1 (antibody, V domains shown)
VH: EVKLVESGGGLVKPGASLKLSCAASGFTFSNYGMSWVRQNSDKRLEWVASISSGGDDTYYPDNVKGRCTISRENAKNTLYLEMSSLKTEDTALYYCTRAGGKAMDYWGQGTSVTVST
VL: DIVLTQSPATLSVIPGNSVSLSCRASQSIRDNLHWYQQKSHESPRLLINYASQSISGIPSRFSGSGSGTDFTLTINSVETEDFGIYFCQQFNSWPLTFGGGTKLELK
notes: those are used here for the chimeric antibody only; also called Mouse C1C1; mouse C1C1
For orientation: EC50 (read off the curve) means the concentration giving half of the maximal effect. In general, EC50 refers to the concentration needed to bring the measured effect to its halfway point. A low value points to an effect from little substance. As usually defined, the IC50 is the midpoint of a concentration-inhibition curve. A higher IC50 goes with weaker potency in that assay. For the molecule B1, in experiment [1], the “IC50 (read off the curve)” value was approximately 5 nM. Further, the entries for the concentration for a half-maximal effect (EC50 (read off the curve)) in experiment [2], in experiment [3] and in [6] were approximately 0.2 nM, approximately 0.02 µg/mL and approximately 0.5 nM, respectively. Also, the “Cell-based Reporter assay (EC50, nM)” value in experiment [4] stood at 3.65 nM. The EC50 in experiment [5] was found to be 0.538 nM; in experiment [8], 0.19 nM. In addition, the IC50 in [7] was 5.19 nM.

B2: chimeric antibody C1C1 (antibody, human IgG1, kappa, V domains shown)
VH: EVKLVESGGGLVKPGASLKLSCAASGFTFSNYGMSWVRQNSDKRLEWVASISSGGDDTYYPDNVKGRCTISRENAKNTLYLEMSSLKTEDTALYYCTRAGGKAMDYWGQGTSVTVST
VL: DIVLTQSPATLSVIPGNSVSLSCRASQSIRDNLHWYQQKSHESPRLLINYASQSISGIPSRFSGSGSGTDFTLTINSVETEDFGIYFCQQFNSWPLTFGGGTKLELKR
notes: also called chC1C1; chimeric C1C1
One may read the Kd as a measure of binding affinity in units of concentration. A low value points to higher affinity. One may read the koff as a measure of how fast the partners let go of each other. A lower koff goes with a long-lived complex. For orientation: kon means the second-order rate constant of association. Read a low kon as slow association. In experiment [9], B2 displayed a Kd of 7.09 nM, a koff of 0.00575 s⁻¹ and a kon of 810000 M⁻¹ s⁻¹. Besides, in experiment [10], the “EC50 (read off the curve)” value is approximately 0.03 µg/mL. In experiment [11], this molecule displayed an EC50 of 0.236 nM.
